Source: PMC9133112, “The structural basis of Cdc7-Dbf4 kinase dependent targeting and phosphorylation of the MCM2-7 double hexamer” (Nature Communications, 2022)

T1: Mcm4 (Saccharomyces cerevisiae, UniProt P30665 1-933)
T1 construct: Mcm4, Saccharomyces cerevisiae, full length; Subunit of m2, written alone for the contacts seen in the cryo-EM structures
T1 sequence (looked up): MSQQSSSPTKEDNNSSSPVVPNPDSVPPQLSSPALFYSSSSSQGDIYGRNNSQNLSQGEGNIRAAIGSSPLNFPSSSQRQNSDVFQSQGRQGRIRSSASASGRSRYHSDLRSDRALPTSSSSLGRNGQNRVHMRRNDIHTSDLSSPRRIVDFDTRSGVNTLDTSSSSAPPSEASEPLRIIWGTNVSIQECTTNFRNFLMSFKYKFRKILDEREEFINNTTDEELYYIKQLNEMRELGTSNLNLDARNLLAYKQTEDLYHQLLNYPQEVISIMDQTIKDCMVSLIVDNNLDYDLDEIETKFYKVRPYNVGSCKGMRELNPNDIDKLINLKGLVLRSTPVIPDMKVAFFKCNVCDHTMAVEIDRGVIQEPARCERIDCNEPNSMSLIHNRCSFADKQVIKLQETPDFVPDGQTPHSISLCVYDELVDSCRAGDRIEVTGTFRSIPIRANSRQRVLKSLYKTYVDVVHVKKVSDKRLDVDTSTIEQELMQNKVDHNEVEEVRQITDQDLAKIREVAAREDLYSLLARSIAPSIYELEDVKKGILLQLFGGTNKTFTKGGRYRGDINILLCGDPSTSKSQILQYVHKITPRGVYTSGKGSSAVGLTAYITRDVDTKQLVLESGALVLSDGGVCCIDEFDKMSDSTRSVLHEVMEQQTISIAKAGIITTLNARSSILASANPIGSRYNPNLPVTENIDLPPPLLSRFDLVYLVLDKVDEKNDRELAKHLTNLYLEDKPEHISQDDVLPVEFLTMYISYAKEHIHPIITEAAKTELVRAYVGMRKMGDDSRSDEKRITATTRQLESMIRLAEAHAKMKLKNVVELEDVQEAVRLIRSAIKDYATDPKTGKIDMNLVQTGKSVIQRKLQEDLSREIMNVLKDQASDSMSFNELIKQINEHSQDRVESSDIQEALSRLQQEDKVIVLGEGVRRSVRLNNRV

T2: Mcm7 (Saccharomyces cerevisiae, UniProt P38132 1-845)
T2 construct: Mcm7, Saccharomyces cerevisiae, full length; Subunit of m2, written alone for the contacts seen in the cryo-EM structures
T2 sequence (looked up): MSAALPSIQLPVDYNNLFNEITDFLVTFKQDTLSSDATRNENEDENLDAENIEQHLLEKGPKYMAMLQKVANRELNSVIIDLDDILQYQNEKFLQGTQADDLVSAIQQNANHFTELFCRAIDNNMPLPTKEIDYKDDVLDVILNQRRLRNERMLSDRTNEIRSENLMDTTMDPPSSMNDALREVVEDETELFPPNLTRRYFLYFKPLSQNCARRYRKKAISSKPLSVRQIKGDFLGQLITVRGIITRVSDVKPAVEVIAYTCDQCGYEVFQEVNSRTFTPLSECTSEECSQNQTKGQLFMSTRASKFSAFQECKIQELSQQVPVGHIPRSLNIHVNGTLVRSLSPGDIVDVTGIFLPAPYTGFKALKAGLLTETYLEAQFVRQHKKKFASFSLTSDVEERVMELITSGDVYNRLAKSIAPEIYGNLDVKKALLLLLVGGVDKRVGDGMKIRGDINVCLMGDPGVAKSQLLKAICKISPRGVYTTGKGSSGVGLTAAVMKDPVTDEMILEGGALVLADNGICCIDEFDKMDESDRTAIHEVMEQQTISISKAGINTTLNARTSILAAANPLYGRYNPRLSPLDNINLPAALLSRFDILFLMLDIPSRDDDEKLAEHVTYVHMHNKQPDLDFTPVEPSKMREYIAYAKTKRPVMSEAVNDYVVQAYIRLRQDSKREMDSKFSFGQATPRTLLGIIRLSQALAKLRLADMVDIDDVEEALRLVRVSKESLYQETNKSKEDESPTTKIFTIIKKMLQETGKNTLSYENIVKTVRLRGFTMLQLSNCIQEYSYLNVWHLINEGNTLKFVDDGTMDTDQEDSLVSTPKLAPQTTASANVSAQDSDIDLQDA

T3: Mcm2 (Saccharomyces cerevisiae, UniProt P29469 1-868)
T3 construct: Mcm2, Saccharomyces cerevisiae, full length; Subunit of m2, written alone for the contacts seen in the cryo-EM structures
T3 sequence (looked up): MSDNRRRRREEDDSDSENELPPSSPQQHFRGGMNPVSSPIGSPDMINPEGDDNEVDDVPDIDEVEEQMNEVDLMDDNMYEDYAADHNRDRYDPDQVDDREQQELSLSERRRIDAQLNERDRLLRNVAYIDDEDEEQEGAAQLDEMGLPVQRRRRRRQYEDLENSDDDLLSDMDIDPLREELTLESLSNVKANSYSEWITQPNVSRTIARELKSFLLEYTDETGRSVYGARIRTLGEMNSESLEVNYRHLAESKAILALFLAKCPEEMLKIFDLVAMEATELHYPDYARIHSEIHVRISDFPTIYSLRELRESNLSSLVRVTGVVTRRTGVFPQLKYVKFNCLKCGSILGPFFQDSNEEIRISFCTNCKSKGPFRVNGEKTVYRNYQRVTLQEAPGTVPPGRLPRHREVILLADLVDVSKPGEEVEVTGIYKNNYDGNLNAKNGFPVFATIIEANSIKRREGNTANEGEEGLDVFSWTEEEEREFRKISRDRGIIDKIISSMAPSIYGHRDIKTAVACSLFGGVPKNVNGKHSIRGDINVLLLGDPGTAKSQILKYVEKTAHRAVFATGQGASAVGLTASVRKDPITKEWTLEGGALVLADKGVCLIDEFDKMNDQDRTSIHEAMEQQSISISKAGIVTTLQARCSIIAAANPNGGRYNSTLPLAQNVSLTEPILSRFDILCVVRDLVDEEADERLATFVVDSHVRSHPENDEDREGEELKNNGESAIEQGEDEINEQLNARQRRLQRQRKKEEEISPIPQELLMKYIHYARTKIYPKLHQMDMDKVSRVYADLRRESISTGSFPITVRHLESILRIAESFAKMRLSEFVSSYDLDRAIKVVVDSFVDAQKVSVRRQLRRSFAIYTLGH

B1: Dbf4 (natural protein, Saccharomyces cerevisiae, UniProt P32325 1-704, looked up)
chain: MVSPTKMIIRSPLKETDTNLKHNNGIAASTTAAGHLNVFSNDNNCNNNNTTESFPKKRSLERLELQQQQHLHEKKRARIERARSIEGAVQVSKGTGLKNVEPRVTPKELLEWQTNWKKIMKRDSRIYFDITDDVEMNTYNKSKMDKRRDLLKRGFLTLGAQITQFFDTTVTIVITRRSVENIYLLKDTDILSRAKKNYMKVWSYEKAARFLKNLDVDLDHLSKTKSASLAAPTLSNLLHNEKLYGPTDRDPRTKRDDIHYFKYPHVYLYDLWQTWAPIITLEWKPQELTNLDELPYPILKIGSFGRCPFIGDRNYDESSYKRVVKRYSRDKANKKYALQLRALFQYHADTLLNTSSVNDQTKNLIFIPHTCNDSTKSFKKWMQEKAKNFEKTELKKTDDSAVQDVRNEHADQTDEKNSILLNETETKEPPLKEEKENKQSIAEESNKYPQRKELAATPKLNHPVLATFARQETEEVPDDLCTLKTKSRQAFEIKASGAHQSNDVATSFGNGLGPTRASVMSKNMKSLSRLMVDRKLGVKQTNGNNKNYTATIATTAETSKENRHRLDFNALKKDEAPSKETGKDSAVHLETNRKPQNFPKVATKSVSADSKVHNDIKITTTESPTASKKSTSTNVTLHFNAQTAQTAQPVKKETVKNSGYCENCRVKYESLEQHIVSEKHLSFAENDLNFEAIDSLIENLRFQI
notes: Dbf4, Saccharomyces cerevisiae, full length (41% resolved in the map); Subunit of m1, written alone for the contacts seen in the cryo-EM structures; also called dumbbell former 4; source: budding yeast cells, purified as subunit of DDK
B2: Cdc7 (enzyme, Saccharomyces cerevisiae, UniProt P06243 1-507, looked up)
chain: MTSKTKNIDDIPPEIKEEMIQLYHDLPGIENEYKLIDKIGEGTFSSVYKAKDITGKITKKFASHFWNYGSNYVALKKIYVTSSPQRIYNELNLLYIMTGSSRVAPLCDAKRVRDQVIAVLPYYPHEEFRTFYRDLPIKGIKKYIWELLRALKFVHSKGIIHRDIKPTNFLFNLELGRGVLVDFGLAEAQMDYKSMISSQNDYDNYANTNHDGGYSMRNHEQFCPCIMRNQYSPNSHNQTPPMVTIQNGKVVHLNNVNGVDLTKGYPKNETRRIKRANRAGTRGFRAPEVLMKCGAQSTKIDIWSVGVILLSLLGRRFPMFQSLDDADSLLELCTIFGWKELRKCAALHGLGFEASGLIWDKPNGYSNGLKEFVYDLLNKECTIGTFPEYSVAFETFGFLQQELHDRMSIEPQLPDPKTNMDAVDAYELKKYQEEIWSDHYWCFQVLEQCFEMDPQKRSSAEDLLKTPFFNELNENTYLLDGESTDEDDVVSSSEADLLDKDVLLISE
notes: Cdc7 serine/threonine kinase, Saccharomyces cerevisiae, full length (87% resolved in the map); Subunit of m1, written alone for the contacts seen in the cryo-EM structures; also called Cdc7 kinase; Cdc7 serine/threonine kinase; source: budding yeast cells, purified as subunit of DDK

Columns and labels:
Assay in all cases: cryo-EM structure; MD-(ATPγS): 250 nM DH released from beads by AluI + 750 nM DDK, 10 min 24 °C, buffer C with 3 mM ATPγS; GraFix glycerol gradient with glutaraldehyde; states I-III
Conditions in all cases: both partners purified
Mcm4 = target: T1, Mcm4
Mcm6 = target: T4, Mcm6 (Saccharomyces cerevisiae, UniProt P53091 1-1017)
T4 construct: Mcm6, Saccharomyces cerevisiae, full length; Subunit of m2, written alone for the contacts seen in the cryo-EM structures

Mcm7 = target: T2, Mcm7
Mcm2 = target: T3, Mcm2
Dbf4 = target: B1

Measured: binding result

T4 sequence (P53091 whole entry): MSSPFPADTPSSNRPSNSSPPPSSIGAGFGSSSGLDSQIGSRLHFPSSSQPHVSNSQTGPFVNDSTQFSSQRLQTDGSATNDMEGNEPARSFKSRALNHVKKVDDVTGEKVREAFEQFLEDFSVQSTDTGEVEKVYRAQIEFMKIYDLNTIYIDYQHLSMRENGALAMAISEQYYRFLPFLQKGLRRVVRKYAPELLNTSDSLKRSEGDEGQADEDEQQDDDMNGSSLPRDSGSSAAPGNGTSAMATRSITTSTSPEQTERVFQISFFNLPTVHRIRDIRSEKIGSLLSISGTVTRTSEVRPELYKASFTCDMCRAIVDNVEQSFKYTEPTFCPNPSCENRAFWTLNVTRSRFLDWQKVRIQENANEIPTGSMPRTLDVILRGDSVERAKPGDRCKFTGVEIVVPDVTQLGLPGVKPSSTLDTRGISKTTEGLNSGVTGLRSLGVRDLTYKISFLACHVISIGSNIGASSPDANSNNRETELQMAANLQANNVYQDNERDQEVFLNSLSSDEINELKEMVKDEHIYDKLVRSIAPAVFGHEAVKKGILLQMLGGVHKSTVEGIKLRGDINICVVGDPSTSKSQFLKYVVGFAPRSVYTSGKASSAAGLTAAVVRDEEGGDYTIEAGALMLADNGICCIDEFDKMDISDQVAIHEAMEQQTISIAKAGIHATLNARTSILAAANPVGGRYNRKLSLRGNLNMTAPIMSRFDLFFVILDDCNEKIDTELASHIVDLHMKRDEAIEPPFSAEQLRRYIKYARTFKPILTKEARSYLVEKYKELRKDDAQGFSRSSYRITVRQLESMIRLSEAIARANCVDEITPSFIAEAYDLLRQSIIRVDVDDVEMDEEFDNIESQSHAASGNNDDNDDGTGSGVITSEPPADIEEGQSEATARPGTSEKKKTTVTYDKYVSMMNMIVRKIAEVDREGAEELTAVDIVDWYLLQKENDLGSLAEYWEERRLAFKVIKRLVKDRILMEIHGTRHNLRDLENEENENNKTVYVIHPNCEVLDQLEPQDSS

B1
binds: Mcm4 | Mcm6 | Mcm7 | Mcm2

B2
binds: Mcm4 | Dbf4
